Assay results reported in PMC4948679.
Several values for one entry are separate records, joined by “and”; a condition that tells them apart may be missing. Equal values may be shown once.

Target: Ab2/3H6, murine/wild-type anti-idiotypic antibody (wt3H6) (mouse (developed from mouse hybridoma))
Test: BLI

B1: broadly neutralizing anti-HIV-1 antibody 2F5 (antibody, V domains shown)
VH: RITLKESGPPLVKPTQTLTLTCSFSGFSLSDFGVGVGWIRQPPGKALEWLAIIYSDDDKRYSPSLNTRLTITKDTSKNQVVLVMTRVSPVDTATYFCAHRRGPTTLFGVPIARGPVNAMDVWGQGITVTISS
VL: ALQLTQSPSSLSASVGDRITITCRASQGVTSALAWYRQKPGSPPQLLIYDASSLESGVPSRFSGSGSGTEFTLTISTLRPEDFATYYCQQLHFYPHTFGGGTRVDVR
  response level: 3.5 nm and 3.4 nm
